Test results as given in patent publication US20160194394A1 (GOVERNING COUNCIL OF THE UNIVERSITY OF TORONTO, published 2016).

Key:
[1] = target: T1, recombinant Frizzled receptor 7 (FZD7) cysteine-rich domain (CRD) fused to the Fc region of human IgG (human, UniProt O75084 33-185); assay: ELISA, 10ug/ml (200nM) Fab [cont'd]
Description: (§1) FIG. 2B is a table depicting the binding of purified Fabs to purified FZD7-Fc measured by ELISA. Fabs purified from 25 ml bacterial cultures were assayed for binding to FZD7-Fc fusion protein (R&D systems) and Fc protein. ELISA plates (384 well) were coated with 2 ug/ml of protein in PBS overnight at four degrees. Wells were blocked with 0.5% BSA/PBS for 1 hour at room temperature, washed three times with 0.05% Tween20/PBS (wash buffer), and then primary dilutions of Fabs in 0.5% BSA/0.05% Tween20/PBS (dilution buffer) were added at indicated concentrations. Fabs were incubated for 1 hour at room temperature, wells were washed six times, and anti-FLAG-HRP (Sigma) was added at 1:5000 in dilution buffer. Secondary antibody was incubated for 45 minutes at room temperature, and wells were washed six times and developed with TMB substrate with an acid stop. The absorbance at 450 nm was read. n.t.=not tested.

Fc control protein [2] = target: T2, Fc control protein; assay: ELISA, 10ug/ml (200nM) Fab [cont'd]
T2 construct: also called Fc protein; control Fc protein
Description: as §1

[3] = target: T3, FZD7 receptor expressed on cells (full-length) (UniProt O75084 33-574, limits assumed); assay: flow cytometry, 200 nM Fab, FZD7 over-expression line (MDA MB 231) [cont'd]
T3 construct: whole, on cells; MDA MB 231 cells may carry other Frizzled receptors too; also called full-length FZD7 receptor; endogenous receptor on MDA MB 231 cells
Description: (§2) FIG. 3 is a table depicting the binding of the purified Fabs to cells expressing FZD7 (flow cytometry). Small scale Fabs were assayed for binding to full-length FZD7 receptor to an over-expression line in MDA MB 231 cells. In parallel, Fabs were assayed for binding to endogenous receptor expressed on the MDA MB 231 cells. Cells were harvested using an EDTA solution, blocked in 2% FBS/PBS (stain buffer), and stained with 200 nM Fab for 30 min on ice. Cells were washed two times with stain buffer and incubated with anti-F(ab′)₂-APC secondary antibody (Jackson Immuno) at 1:1000 for 15 minutes on ice. All antibodies were diluted in stain buffer. Cells were washed three times with stain buffer and then fixed with 1% paraformaldehye for analysis by flow cytometry. […] The percent of the cell population within the positive gates is indicated.

[4] = target: T1, recombinant Frizzled receptor 7 (FZD7) …; assay: ELISA, 1ug/ml (20nM) Fab [cont'd]
Description: as §1

Fc control protein [5] = target: T2, Fc control protein; assay: ELISA, 1ug/ml (20nM) Fab [cont'd]
Description: as §1

[6] = target: T3, FZD7 receptor expressed on cells …; assay: flow cytometry, 200 nM Fab, MDA MB 231 [cont'd]
Description: as §2

OD 450 [1]	OD 450 (Fc control protein [2])	% population within the positive gate [3]	OD 450 [4]	OD 450 (Fc control protein [5])	% population within the positive gate [6]	Binder
2.79	0.15	81%	1.42	0.06	1.2%	D11 (Fab, selection round 3; also called Fzd7-R3-D11) light: DIQMTQSPSSLSASVGDRVTITCRASQSVSSAVAWYQQKPGKAPKLLIYSASSLYSGVPSRFSGSRSGTDFTLTISSLQPEDFATYYCQQYFPSGLITFGQGTKVEIKRTVAAPSVFIFPPSDSQLKSGTASVVCLLNNFYPREAKVQWKVDNALQSGNSQESVTEQDSKDSTYSLSSTLTLSKADYEKHKVYACEVTHQGLSSPVTKSFNRGECGGS heavy: EVQLVESGGGLVQPGGSLRLSCAASGFNISYSYMHWVRQAPGKGLEWVASISPSSGYTSYADSVKGRFTISADTSKNTAYLQMNSLRAEDTAVYYCARSVSWWYSWWSWGMDYWGQGTLVTVSSASTKGPSVFPLAPSSKSTSGGTAALGCLVKDYFPEPVTVSWNSGALTSGVHTFPAVLQSSGLYSLSSVVTVPSSSLGTQTYICNVNHKPSNTKVDKKVEPKSC
2.97	0.07	82.5%	2.35	0.06	1%	F3 (Fab, selection round 3; also called Fzd7-R3-F3) light: DIQMTQSPSSLSASVGDRVTITCRASQSVSSAVAWYQQKPGKAPKLLIYSASSLYSGVPSRFSGSRSGTDFTLTISSLQPEDFATYYCQQGGHYWLITFGQGTKVEIKRTVAAPSVFIFPPSDSQLKSGTASVVCLLNNFYPREAKVQWKVDNALQSGNSQESVTEQDSKDSTYSLSSTLTLSKADYEKHKVYACEVTHQGLSSPVTKSFNRGECGGS heavy: EVQLVESGGGLVQPGGSLRLSCAASGFNISYSSMHWVRQAPGKGLEWVASISSSYGYTSYADSVKGRFTISADTSKNTAYLQMNSLRAEDTAVYYCARSYYGYYVGYGYSSWSGSGMDYWGQGTLVTVSSASTKGPSVFPLAPSSKSTSGGTAALGCLVKDYFPEPVTVSWNSGALTSGVHTFPAVLQSSGLYSLSSVVTVPSSSLGTQTYICNVNHKPSNTKVDKKVEPKSC
3.2	0.1	87.1%	3.09	0.07	96.6%	E9 (Fab, selection round 3; also called Fzd7-R3-E9) light: DIQMTQSPSSLSASVGDRVTITCRASQSVSSAVAWYQQKPGKAPKLLIYSASSLYSGVPSRFSGSRSGTDFTLTISSLQPEDFATYYCQQAVYHALITFGQGTKVEIKRTVAAPSVFIFPPSDSQLKSGTASVVCLLNNFYPREAKVQWKVDNALQSGNSQESVTEQDSKDSTYSLSSTLTLSKADYEKHKVYACEVTHQGLSSPVTKSFNRGECGGS heavy: EVQLVESGGGLVQPGGSLRLSCAASGFNIYYSSMHWVRQAPGKGLEWVASISSYSSSTYYADSVKGRFTISADTSKNTAYLQMNSLRAEDTAVYYCARSAVVHYPAGYWVYWGWYAFDYWGQGTLVTVSSASTKGPSVFPLAPSSKSTSGGTAALGCLVKDYFPEPVTVSWNSGALTSGVHTFPAVLQSSGLYSLSSVVTVPSSSLGTQTYICNVNHKPSNTKVDKKVEPKSC
3.24	0.06	93.7%	3.22	0.06	98.2%	B10 (Fab, selection round 3; also called Fzd7-R3-B10) light: DIQMTQSPSSLSASVGDRVTITCRASQSVSSAVAWYQQKPGKAPKLLIYSASSLYSGVPSRFSGSRSGTDFTLTISSLQPEDFATYYCQQYWASLITFGQGTKVEIKRTVAAPSVFIFPPSDSQLKSGTASVVCLLNNFYPREAKVQWKVDNALQSGNSQESVTEQDSKDSTYSLSSTLTLSKADYEKHKVYACEVTHQGLSSPVTKSFNRGECGGS heavy: EVQLVESGGGLVQPGGSLRLSCAASGFNISYYYIHWVRQAPGKGLEWVAYISPYYGSTYYADSVKGRFTISADTSKNTAYLQMNSLRAEDTAVYYCARSWSYSYYYSHPGWSPVWAMDYWGQGTLVTVSSASTKGPSVFPLAPSSKSTSGGTAALGCLVKDYFPEPVTVSWNSGALTSGVHTFPAVLQSSGLYSLSSVVTVPSSSLGTQTYICNVNHKPSNTKVDKKVEPKSC
2.98	0.13	84.2%	1.9	0.06	15.3%	G7 (Fab, selection round 3; also called Fzd7-R3-G7) light: DIQMTQSPSSLSASVGDRVTITCRASQSVSSAVAWYQQKPGKAPKLLIYSASSLYSGVPSRFSGSRSGTDFTLTISSLQPEDFATYYCQQYGYWWVSLFTFGQGTKVEIKRTVAAPSVFIFPPSDSQLKSGTASVVCLLNNFYPREAKVQWKVDNALQSGNSQESVTEQDSKDSTYSLSSTLTLSKADYEKHKVYACEVTHQGLSSPVTKSFNRGECGGS heavy: EVQLVESGGGLVQPGGSLRLSCAASGFNLYYYSIHWVRQAPGKGLEWVASIYSYSSYTYYADSVKGRFTISADTSKNTAYLQMNSLRAEDTAVYYCARWWPGHYSGYGSGALDYWGQGTLVTVSSASTKGPSVFPLAPSSKSTSGGTAALGCLVKDYFPEPVTVSWNSGALTSGVHTFPAVLQSSGLYSLSSVVTVPSSSLGTQTYICNVNHKPSNTKVDKKVEPKSC
3.18	0.1	86.2%	2.92	0.06	15.9%	B2 (Fab, selection round 3; also called Fzd7-R3-B2) light: DIQMTQSPSSLSASVGDRVTITCRASQSVSSAVAWYQQKPGKAPKLLIYSASSLYSGVPSRFSGSRSGTDFTLTISSLQPEDFATYYCQQSSYSLITFGQGTKVEIKRTVAAPSVFIFPPSDSQLKSGTASVVCLLNNFYPREAKVQWKVDNALQSGNSQESVTEQDSKDSTYSLSSTLTLSKADYEKHKVYACEVTHQGLSSPVTKSFNRGECGGS heavy: EVQLVESGGGLVQPGGSLRLSCAASGFNLSYSYMHWVRQAPGKGLEWVASIYSSYGYTSYADSVKGRFTISADTSKNTAYLQMNSLRAEDTAVYYCARYYGWAYYYSYFPAWAGGGIDYWGQGTLVTVSSASTKGPSVFPLAPSSKSTSGGTAALGCLVKDYFPEPVTVSWNSGALTSGVHTFPAVLQSSGLYSLSSVVTVPSSSLGTQTYICNVNHKPSNTKVDKKVEPKSC
3.26	0.06	91.5%	3.22	0.05	46.7%	B9 (Fab, selection round 3; also called Fzd7-R3-B9) light: DIQMTQSPSSLSASVGDRVTITCRASQSVSSAVAWYQQKPGKAPKLLIYSASSLYSGVPSRFSGSRSGTDFTLTISSLQPEDFATYYCQQWWASGVGPFTFGQGTKVEIKRTVAAPSVFIFPPSDSQLKSGTASVVCLLNNFYPREAKVQWKVDNALQSGNSQESVTEQDSKDSTYSLSSTLTLSKADYEKHKVYACEVTHQGLSSPVTKSFNRGECGGS heavy: EVQLVESGGGLVQPGGSLRLSCAASGFNLYSSSIHWVRQAPGKGLEWVAYISSYYSSTYYADSVKGRFTISADTSKNTAYLQMNSLRAEDTAVYYCARPAMDYWGQGTLVTVSSASTKGPSVFPLAPSSKSTSGGTAALGCLVKDYFPEPVTVSWNSGALTSGVHTFPAVLQSSGLYSLSSVVTVPSSSLGTQTYICNVNHKPSNTKVDKKVEPKSC
3.12	0.09	80.9%	3.05	0.06	0.7%	D9 (Fab, selection round 3; also called Fzd7-R3-D9) light: DIQMTQSPSSLSASVGDRVTITCRASQSVSSAVAWYQQKPGKAPKLLIYSASSLYSGVPSRFSGSRSGTDFTLTISSLQPEDFATYYCQQSSYSLITFGQGTKVEIKRTVAAPSVFIFPPSDSQLKSGTASVVCLLNNFYPREAKVQWKVDNALQSGNSQESVTEQDSKDSTYSLSSTLTLSKADYEKHKVYACEVTHQGLSSPVTKSFNRGECGGS heavy: EVQLVESGGGLVQPGGSLRLSCAASGFNLSYSSMHWVRQAPGKGLEWVASIYSSYSSTSYADSVKGRFTISADTSKNTAYLQMNSLRAEDTAVYYCARGAGYYWWHYYYVHGAMDYWGQGTLVTVSSASTKGPSVFPLAPSSKSTSGGTAALGCLVKDYFPEPVTVSWNSGALTSGVHTFPAVLQSSGLYSLSSVVTVPSSSLGTQTYICNVNHKPSNTKVDKKVEPKSC
